Measurements: PMC4627082, “MCM ring hexamerization is a prerequisite for DNA-binding” (Nucleic Acids Research, 2015)

B1: PfMCMN-βT (1–256; K233A; R234A; K236A) (domain or fragment, Pyrococcus furiosus, UniProt Q8U3I4 1-256, looked up)
chain: MDREEMIERFANFLREYTDEDGNPVYRGKITDLLTITPKRSVAIDWMHLNSFDSELAHEVIENPEEGISAAEDAIQIVLREDFQREDVGKIHARFYNLPETLMVKDIGAEHINKLIQVEGIVTRVGEIKPFVSVAVFVCKDCGHEMIVPQKPYESLEKVKKCEQCGSKNIELDVNKSSFVNFQSFRIQDRPETLKGGEMPRFIDGILLDDIVDVALPGDRVIVTGILRVVLEAAEATPIFRKILEVNHIEPVSKEI
notes: Minichromosome Maintenance (MCM) protein of Pyrococcus furiosus, N-terminal domain, residues 1-256, with three alanine mutations of the β-turn; Made by site-directed mutagenesis of the PfMCMN-WT SUMO-fusion construct; SUMO removed by Ulp1; also called β-turn triple mutant; pCF076.1

Columns and labels:
[1] = molecular target: PfMCMN-WT (residues 1–256), amino-terminal domain of Pyrococcus furiosus MCM (Pyrococcus furiosus) (UniProt Q8U3I4); assay: AUC; sedimentation velocity at the highest PfMCMN-WT concentration (350 μM), co-interpreted with sedimentation equilibrium; 20°C, 20 mM HEPES pH 7.6, 200 mM NaCl, 5 mM β-mercaptoethanol
[2] = molecular target: PfMCMN-WT (residues 1–256), amino-terminal domain of Pyrococcus furiosus MCM (Pyrococcus furiosus) (UniProt Q8U3I4); assay: AUC; sedimentation velocity, 20°C, 50 000 rpm, 20 mM HEPES pH 7.6, 200 mM NaCl, 5 mM β-mercaptoethanol, interference and absorbance optics, c(s) distributions; isotherm of signal-average s-values fitted to monomer-hexamer self-association; some WT samples with 40-mer oligo-dT ssDNA (T40)
[3] = molecular target: PfMCMN-WT (residues 1–256), amino-terminal domain of Pyrococcus furiosus MCM (Pyrococcus furiosus) (UniProt Q8U3I4); assay: AUC; sedimentation equilibrium of apoproteins, 12-51 μM, 20°C, 20 mM HEPES pH 7.6, 200 mM NaCl, 5 mM β-mercaptoethanol, absorbance 280 nm; reversible monomer-hexamer (WT, hexamer to monomers) or monomer-pentamer (βT, pentamer to monomers) model; the constant is the protein concentration where half of the protein is monomeric
[4] = molecular target: the molecule itself; assay: SEC; final size-exclusion chromatography step of purification; elution volume compared with PfMCMN-WT
[5] = molecular target: the molecule itself; assay: AUC; sedimentation velocity, 20°C, 50 000 rpm, 20 mM HEPES pH 7.6, 200 mM NaCl, 5 mM β-mercaptoethanol, interference and absorbance optics, c(s) distributions; isotherm of signal-average s-values fitted to monomer-hexamer self-association; some WT samples with 40-mer oligo-dT ssDNA (T40)
[6] = molecular target: the molecule itself; assay: AUC; sedimentation equilibrium of apoproteins, 12-51 μM, 20°C, 20 mM HEPES pH 7.6, 200 mM NaCl, 5 mM β-mercaptoethanol, absorbance 280 nm; reversible monomer-hexamer (WT, hexamer to monomers) or monomer-pentamer (βT, pentamer to monomers) model; the constant is the protein concentration where half of the protein is monomeric

| Molecule | stoichiometry N [1] | Kd [2] | percent hexamer at 15 μM with T40 ssDNA [2] | percent hexamer at 38 μM with T40 ssDNA [2] | percent hexamer at 45 μM with T40 ssDNA [2] | percent hexamer at 128 μM with T40 ssDNA [2] | percent of protein in the hexameric fraction at 76 μM [2] | percent of protein in the hexameric fraction at 180 μM [2] | stoichiometry N [2] | Kd [3] | stoichiometry N [4] | stoichiometry N [5] | Kd [6] |
| --- | --- | --- | --- | --- | --- | --- | --- | --- | --- | --- | --- | --- | --- |
| PfMCMN-WT (residues 1–256), amino-terminal domain of Pyrococcus furiosus MCM (from UniProt Q8U3I4 1-256) (domain or fragment) | 12 | 58 µM | 55% | 72% | 72% | 82% | 37% | 60% | 6 | 60 µM |  |  |  |
| B1 |  |  |  |  |  |  |  |  |  |  | ~3 | 5 | 8 µM |
